Assay: yeast display, Sf9 membrane polyspecificity reagent, FACS + sequencing; frameworks hold sequencing errors
Procedure, shortened: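 A nanobody's polyreactivity label depends on the gate it was sorted from. Yeast display cells were stained with 10% biotinylated, detergent-solubilized Sf9 membrane reagent for 1 hour at 4 °C, enriched on streptavidin microbeads and sorted by FACS. The low and high (top ~1%) gates were set on anti-HA fluorescence for expression and streptavidin fluorescence for reagent binding.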
In the case of “QDQLVESGGGLVQAGGSLRLSCAASGSTFHLNALGWYRQSPGKERELVAAISRDGSSTSYADSEKGRFTISRDNAKNTVYLQMNSLKPEDTAVFYCAADDTLDRVPSTFIDGSPGYGYWGLGTQVTVSS”, the “polyreactivity (PSR sort gate)” value is reported as “low polyreactivity”.
With “QDQLVESGGGLVQAGGSLRLSCAASGSTFLTYAMGWYRQAPGKERELVAAISKTGASTYYADSVKGRFTISRDNAKNTVYLQMNSLKPEDTAVYDCAAGRYTSYSPRYYYWGQGTQVTVSS” the “polyreactivity (PSR sort gate)” value was “high polyreactivity”.
With “QDQLVESGGGLVQAGGSLRLSCAASGSTFSGYGMGWYRQAPGKERELVAAITSSGGRTYYADSVKGRFTISRDNAKNTVYLQMNSLKPEDTAVYYCAALYYHEYDYWGQGTQVTVSS” the “polyreactivity (PSR sort gate)” value was “low polyreactivity”.
For “QDQLVESGGGLVQAGGSLRLSCAASGSTFVANDMGWYRQAPGKERELVASISDGSSTYADSVKGRFTISRDNAKNTVYLQMNSLKPEDTAVYYCAKDGSLDAQSYDYDYWGQGTQVTVSS”, the “polyreactivity (PSR sort gate)” value was “low polyreactivity”.
In the case of “QDQLVESGGGLVQAGGSLRLSCAASGSTFVVNAMGWYRQAPGKERELVAAISSSGSSTYADSVKGRFTISRDNEKNTVYLQMNCLKPEDTAVYYCHKTTLLTVEYDYWGQGTQVSVSS”, the “polyreactivity (PSR sort gate)” value is reported as “low polyreactivity”.
With “QDQLVESGGGLVQAGGSLRLSCAASGSTLGYNAMGWYRQAPGKERELVAAIRGGDDDTYYADSVKGRFTISRDNAKNTVYLQMNSLKPEDTAVYYCATGDTSIPYSTPGGYDSWGQGTQVTVSS” the “polyreactivity (PSR sort gate)” value was “low polyreactivity”.
In the case of “QDQLVESGGGLVQAGGSLRLSCAASGYTFTSNAMGWYRQAPRKERELVAAITNVGSTNYADSVKGRFTISRDNAKNTVNLQMNSLKPEDTAVYYCAAGGSSSWAFNYWGQGTQVTVSS”, the “polyreactivity (PSR sort gate)” value is reported as “low polyreactivity”.
For “QDQLVESGGGLVQAGGSLRLSCAASGYTLYTYAMGWNRQAPRKERELVAAISTGGGRTYNADSVKGRFTISRDNAKNTVYLQMICLKPEDTAVYYCAAPYRSLKTGRYDYWGQGTQVSVSS”, the “polyreactivity (PSR sort gate)” value was “high polyreactivity”.
For “QDQLVESGGGLVQAGGSLRLSCAASRSTFYHNVMGWYRQAPGKERELVASIDTGDSTNYADSVKGRFTISRDNAKNTVYLQMNSLKPEDTAVYYCAAEIPRRWASFATLWYDYWGQGTQVTVSS”, the “polyreactivity (PSR sort gate)” value was “low polyreactivity”.
For “QDQLVESGGGLVQAGGSLRLSCAASVSTFVNYAMGWYRQAPGKEMELVAAMSWSGGSTYYADSVKGRFTISRDNAKNTVYLQMNSLKPEDTAVYYCAVYAYWRFRTYYYWGQGTQVTVSA”, the “polyreactivity (PSR sort gate)” value was “high polyreactivity”.
With “QDQLVESGGGLVQAGGSLRLSCAATGRIFERNAMGWYRQAPAKERELVARITSGGGTYYADSVKGRFTISRDNAKNTVYLQMNSLKPEDTAVYYCAVQYLYRKYRRYDYWGQGTQVTVSS” the “polyreactivity (PSR sort gate)” value was “high polyreactivity”.
With “QDQLVESGGGLVQAGGSLRLSCAATGSIFGFNTMGWYRQAPGKERELVPTINWRGGRTYYADSVKGRFTISRDNAKNTVYLLMNSLKPEDTAVYYFNTQGLAGQYQEHGYWGQGTQVTVSS” the “polyreactivity (PSR sort gate)” value was “high polyreactivity”.
With “QDQLVESGGGLVQAGGSLRLSCAAYGSTFERYVMGWYRQAPGKDRELVADINSGGSTNYADSVKGRFTISRDNAKNTVYLQMNSLKPEDTAVYYCAKDGWGGWWFPYRVKYGYWGQGSQVTVSS” the “polyreactivity (PSR sort gate)” value was “low polyreactivity”.
In the case of “QDQLVESGGGLVQAGGSLRLSCAPSGFIFEYNAMGWYRQAPGKESELVADISFSGGSTYYADSVKVRFTISRDNAKNTVYLQMKSLKPEDTAGYYCAARALASVSAHKYDYWGQGTQVTVSS”, the “polyreactivity (PSR sort gate)” value is reported as “low polyreactivity”.
For “QDQLVESGGGLVQAGGSLRLSCAPSGRTFYSYAMGWYRQAPGKERELVATIDSGGRTNYADSVKGRFTISRDNAKNTVYLQMNSLKPEDTAVYYCAASVWNWYFGIRYDYWGQGTQVTVSS”, the “polyreactivity (PSR sort gate)” value was “high polyreactivity”.
For “QDQLVESGGGLVQAGGSLRLSCAPSGSIFYTNAMGWYRQAPRKERHLVAAISWGGGSTYYADSVKGRFTISRDNAKNTVYLQMNSLKAEDTAVYYCAARYYVYQQGFRSHVTKHYDYWGQGTQVTVSS”, the “polyreactivity (PSR sort gate)” value was “low polyreactivity”.
In the case of “QDQLVESGGGLVQAGGSLRLSCDASGSTFYRYDMGRSRQAPGKERELFAAINQSGDSTYYADSVKGRFTISRDKAKNTVYLQMNSLKPEDTAVYYCAAVRSRYLAFYYWGQCTQVTVSS”, the “polyreactivity (PSR sort gate)” value is reported as “low polyreactivity”.
For “QDQLVESGGGLVQAGGSLRLSCHSSGFIFTDYAMGWYRQAPGKERELVARITSGGASTYYADSVKGRFTISRDIAKNTVYLQMNSLKPEDTAVYYCAAQARCWGYVYWGQGTQVTVSS”, the “polyreactivity (PSR sort gate)” value was “low polyreactivity”.
For “QDQLVESGGGLVQAGGSLRLSCPASGFTFERNTMGWYRQAPGKERELVAVITRRGGNTNYADSVKGRFTISRDNAKNTVYLQMNSLKPEDTAVYYCAAYYSHYGTRYDYWGQGTQVTVSS”, the “polyreactivity (PSR sort gate)” value was “high polyreactivity”.
In the case of “QDQLVESGGGLVQAGGSLRLSCSASGRIFYYYTMGWYRQEPGKERELVAAISSGGSTNYADSVKGRFTISRDNAKNTVYLQMNSLKPEDTAVYYCNVELTTVGHWYYYRPGYDYWVQGTQVTVSS”, the “polyreactivity (PSR sort gate)” value is reported as “low polyreactivity”.
In the case of “QDQLVESGGGLVQAGGSLRLSFAASVSTFTTYAKGWYRQAPGKERELVAAIDWSDGSITYYADSVKGRFTISRDNAKNTVYLQMNSLKPEDTAVYYCAKDNSQYGWGYDYWVQGTQVTVSS”, the “polyreactivity (PSR sort gate)” value is reported as “low polyreactivity”.
With “QDQLVESGGGLVQAGGSLRLTCAASGFTFRRNAMGWYRQAPGKERELVAAISSRGGSTYYADSVKGRFTISRDNAKNTVYLQMNSLKPEDTAVYYCAAYYVPWGTLYHLDYWGQGTQVTVSS” the “polyreactivity (PSR sort gate)” value was “high polyreactivity”.
With “QDQLVESGGGLVQAGRSLRLSCAASGSIYAFYAMGWYRQAPRKERELVAAISSRGGRTYYADSVKGRFTISRDNAKNTVYLQMNRLKPEETAVYYCAALYWRYLGYPVVRYYYWGQGTQVNVSS” the “polyreactivity (PSR sort gate)” value was “high polyreactivity”.
With “QDQLVESGGGLVQAGRSLRLTCAASGSIIPGNAMGWYRQAPGKERELVAVIDFSGASTYYADSVKGRFTISRDNAKNTVYLQMNSLKPEDTADYWGQGTQVTVSS” the “polyreactivity (PSR sort gate)” value was “low polyreactivity”.
For “QDQLVESGGGLVQAGVSLRLSCAASGIISSDNAMGWYRQAPGKERELVAAITVSGGSTYYADSVKRRFTISRDNAKNTVYFQMNSLKPEDTAVYYCAADYSLEYGFDYWGQGTQVSVSS”, the “polyreactivity (PSR sort gate)” value was “low polyreactivity”.
With “QDQLVESGGGLVQAVGSLRLSCAASGSIFSFNAIGWYRQAPGKERELVAVITQRGGSTYYADSVKGRFTISRDNAKTTVYLQMNSLKPEDTAVDYCAARTPRGYYYWGQGTQVTVSS” the “polyreactivity (PSR sort gate)” value was “high polyreactivity”.
In the case of “QDQLVESGGGLVQEGRILRLISADSGRISRFNAMGWYRPAPGKERELVAAITRGASTYYADSVKGRFTISRDNAKNTVYLEMNSVKPEVTAVYYCAAAPSYSWTSVARYFYWGQGTQVPVSS”, the “polyreactivity (PSR sort gate)” value is reported as “high polyreactivity”.
With “QDQLVESGGGLVQSGGSLRLSCAASGSILWSYAMGWYIQAPGKERELVAANTSGGSTYYADSVKGRFTISRDNAKNTVYLQMNSLKPEDTAVYFCAADRWRDFWFNEEYWGQGTQVTVSS” the “polyreactivity (PSR sort gate)” value was “high polyreactivity”.
For “QDQLVESGGGLVQSGGSLRLSCAASGYIFGPYAMGWYRQAPGKEREFVATISGSVGSTYYADSVKGRFTISRDNGKNTVYLQMNSLKPQDTAVYYCNKDHSVYGYEYWGQGTQVTVSS”, the “polyreactivity (PSR sort gate)” value was “low polyreactivity”.
In the case of “QDQLVESGGRLVQAGGSLRLSCAASGRTFYYYAMGWYRQAPGKERELVARIRSGGSTNYADSVKGRFTISRDNAKNSVYLQMNSLKPEDTAVYYCNALGAKGYVKGFDYWGQGTQVTVSS”, the “polyreactivity (PSR sort gate)” value is reported as “low polyreactivity”.
With “QDQLVESGGVLVQAGGSLRLSCAASGSIFGYYAMGWYRQAPGKERELVARISYSGGTTYYADSVKGRFTNSRDNAKNTVYLQMNSQIPEDTAVYYCNARIPYSWRYGYWGQGTQVTVSS” the “polyreactivity (PSR sort gate)” value was “high polyreactivity”.
In the case of “QDQLVESGRGLVEAGGSLRLSCAASGRILGRYAMGWNRQAPGKERELVAAISRSGGTTYYADSVKGRFTISRDNAKNTVYLEMNSLKPEDTAVYDCARLRVYAAVYDYWGQGTQVTVSS”, the “polyreactivity (PSR sort gate)” value is reported as “high polyreactivity”.
For “QDQLVESGVGLVQAGGSLRLSCAASGFTFTRNAMGWYRQAPGKEREFVAAITRSGGSTYYADSVKGRFTISRDNAKNTVYLQMNSLKPEDTAVYYCAAEVSSFLYTPSYSTDDYWGQGTQVTVSS”, the “polyreactivity (PSR sort gate)” value was “high polyreactivity”.
In the case of “QDQLVESRGDLVQAGGSLRLSCAASGSIFYDYAMRWYRQAPGKERELVAASDSGRNTTYADSVKGRFTISRDNAKKTVYFQMNSLKPEATAVYYCKTDPGWFDDSPPDPYIYGGYDYWGQGTQVTVSS”, the “polyreactivity (PSR sort gate)” value is reported as “high polyreactivity”.
In the case of “QDQLVESRGGIVQAGGSLRLSCAASGSTFRLYAMGWYRQAPGKERELVAAISSGGTTKYADSVKGRFTNSRDNAKNTVYLQMNSLTPEDTAVYYCNAVYHWGNPGEYATLPRYDYWGQGTQVNVSS”, the “polyreactivity (PSR sort gate)” value is reported as “high polyreactivity”.
For “QDQLVESRGGLVQAGGRLRLSCAASGSIFASNTIGWYRQAPGKEREVVAGITKIGSSTYYADSVKGRFTISRDNAKNTVYLQMNSLKPEDTAVYYCNAYGPNIYSARYDYWGQGTQVTVSS”, the “polyreactivity (PSR sort gate)” value was “low polyreactivity”.
For “QDQLVESRGGLVQAGGSLRLSSAASGFTLVVNAMGWYRQAPGKERELVAAITSRCGGTYYADSVKGRFTISRDKANNSVYLQMNSLKPEDTAVYYCAAPSLIVSTHRYGYWGQGTEVTVSS”, the “polyreactivity (PSR sort gate)” value was “low polyreactivity”.
For “QDQLVESVGGLDQAGGSLRLSCAASGRIFVHNAMGWYRQAPGKEREFVAAISLRGGSTYYADSVKGRFTISRDNAKNTVYLQMNSLKTEDTAVYYCAAVPAHFYGFDYCGQGTQVTVSS”, the “polyreactivity (PSR sort gate)” value was “low polyreactivity”.
In the case of “QDQLVESVGGLDQAGGSLRLSSAASGRTFWWNAMGWYRQAPGKERELVAVISYSGGSTYYADSVKGRFTISRDNAKNTVYLQMNSLKPEDTAVYYCAAATRVRGFTEYYWGQGTQVTVSS”, the “polyreactivity (PSR sort gate)” value is reported as “high polyreactivity”.
With “QDQLVESVGGLVQAGGSLRLSCAASGNTFRSYVLGWYRQAPGKERELVADISSGDGTNYADSVKGRFTISRDNAKNTVYLQMNSLKREDTAVYYCAKDVYNFRTTHSYFTGYDSWGQGTQVTVSS” the “polyreactivity (PSR sort gate)” value was “low polyreactivity”.
For “QDQLVESVGGVVQAGGSLRLSCAASGRIIRTYAMGWYRQAPGKERELVATISYSSGRTYYADSVKGRFTISRDNAKNTVYLQMNSLKPEDTAVYYCARRRRSGSRQYYYWGQGTQVTVSS”, the “polyreactivity (PSR sort gate)” value was “high polyreactivity”.
In the case of “QDQLVESVVGLDQAGVSLRLSSAASGRTFRKYAMGCSRQAHGKERELVAAITSSGARTYYADSVKGRFTISRDNAKNTVYLQMNSLKPEDTAVYYCNAVSPYYGIEFEYWGLGTQVTVSS”, the “polyreactivity (PSR sort gate)” value is reported as “high polyreactivity”.
For “QDQLVETAGGLVQAGVTHTLSCAASAFTFRNYAMGWYRQAPGKESEFVAAISRRGGSTYYADSVKGRFTISRDNAKNTVYLQLNCLKPEDTAVYYCATEPGKQNTYRMDYWGQGTQVTVSS”, the “polyreactivity (PSR sort gate)” value was “high polyreactivity”.

From the nanobody polyreactivity screen of Harvey et al. (2022)
